The values below come from article PMC4737141.

The target in the test is Recombinant human Tipin-His6 (human) (UniProt Q9BVW5). The test is described as follows: SPR.
Chain of UniProt Q9BVW5 (Q9BVW5 whole entry): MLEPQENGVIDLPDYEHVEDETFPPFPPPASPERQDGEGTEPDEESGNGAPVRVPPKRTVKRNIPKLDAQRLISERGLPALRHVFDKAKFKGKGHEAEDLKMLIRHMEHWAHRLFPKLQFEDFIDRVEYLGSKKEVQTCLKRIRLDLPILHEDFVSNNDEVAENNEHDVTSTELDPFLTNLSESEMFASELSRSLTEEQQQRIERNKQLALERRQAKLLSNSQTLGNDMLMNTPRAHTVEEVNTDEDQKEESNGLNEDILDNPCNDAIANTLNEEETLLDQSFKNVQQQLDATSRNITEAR

“Recombinant human DDX11-3xFLAG (from UniProt Q96FC9 1-970) (enzyme)”: the Kd came to 655 nM.

In general, Kd refers to the free concentration of one partner at which half of the binding sites on the other are occupied at equilibrium, for simple one-to-one binding.
